Data on 25 molecules can be found in patent US10941182 (Amgen, dated 2021).

Starred links: 1 amine or outer side, 2 acyl side, 3 side chain; linkers in the order of their positions; H or OH if unused. Non-standard residues stand in square brackets, D forms with d. Primed or numbered codes have the meaning given here. No end group written: not given here. rhArg = homoarginine with ψ(CH2NH) reduced amide bond, N=C(N)NCCCC[C@@H](C[*:2])N[*:1]; rHis = histidine with ψ(CH2NH) reduced amide bond, c1nc(C[C@@H](C[*:2])N[*:1])c[nH]1; Oic = O=C(O)[C@@H]1C[C@@H]2CCCC[C@@H]2N1; Phe(4-Cl) = N[C@@H](Cc1ccc(Cl)cc1)C(=O)O; d1Nal = N[C@H](Cc1cccc2ccccc12)C(=O)O; d2Nal = N[C@H](Cc1ccc2ccccc2c1)C(=O)O; NMeR = CN[C@@H](CCCNC(=N)N)C(=O)O; hArg = N=C(N)NCCCC[C@H](N)C(=O)O; Cha = N[C@@H](CC1CCCCC1)C(=O)O; Gly(N-CH2CH2OH) = O=C(O)CNCCO; αMeL = CC(C)C[C@](C)(N)C(=O)O; αMeOrn = C[C@](N)(CCCN)C(=O)O; αMeP = C[C@@]1(C(=O)O)CCCN1; β3hP = O=C(O)C[C@@H]1CCCN1; αMeS = C[C@](N)(CO)C(=O)O; Nle = CCCC[C@H](N)C(=O)O; Orn = NCCC[C@H](N)C(=O)O; Pip′ = not defined here; Nlys = NCCCCNCC(=O)O; BLeu = β-leucine; βAla = NCCC(=O)O; BLys = β-lysine

T1: rat APJ receptor (rat, UniProt Q9JHG3 1-377)
T1 sequence (looked up): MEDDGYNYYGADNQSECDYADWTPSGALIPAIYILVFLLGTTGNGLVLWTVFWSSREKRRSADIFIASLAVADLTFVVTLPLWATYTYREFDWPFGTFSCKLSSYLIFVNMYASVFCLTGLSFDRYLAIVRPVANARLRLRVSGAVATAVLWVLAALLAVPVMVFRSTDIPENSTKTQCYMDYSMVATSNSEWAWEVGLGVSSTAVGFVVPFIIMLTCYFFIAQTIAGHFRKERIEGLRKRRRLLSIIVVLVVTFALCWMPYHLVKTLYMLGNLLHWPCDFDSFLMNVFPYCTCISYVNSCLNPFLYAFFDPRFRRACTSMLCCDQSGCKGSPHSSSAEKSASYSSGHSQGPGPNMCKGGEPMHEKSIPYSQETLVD

T2: human APJ receptor (human, UniProt P35414 1-380)
T2 sequence (looked up): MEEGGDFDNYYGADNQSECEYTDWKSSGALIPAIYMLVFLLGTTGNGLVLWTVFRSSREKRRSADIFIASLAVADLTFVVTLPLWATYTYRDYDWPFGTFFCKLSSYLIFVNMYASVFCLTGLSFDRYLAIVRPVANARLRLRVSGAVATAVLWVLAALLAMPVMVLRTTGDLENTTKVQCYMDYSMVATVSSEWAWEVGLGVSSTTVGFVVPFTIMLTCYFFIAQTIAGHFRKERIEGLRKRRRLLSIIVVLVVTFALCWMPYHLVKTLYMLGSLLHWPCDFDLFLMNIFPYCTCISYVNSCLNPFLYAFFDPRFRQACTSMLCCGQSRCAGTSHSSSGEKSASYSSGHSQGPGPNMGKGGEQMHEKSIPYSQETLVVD

B1: apelin polypeptide SEQ ID NO: 703 (peptide)
peptide: [Orn]F[hArg][hArg]Q[hArg]P[hArg][Cha]SH[βAla]G[Oic][Nle]P[Phe(4-Cl)]
B2: apelin polypeptide SEQ ID NO: 39 (peptide)
peptide: Ac-[Orn]F[hArg][hArg]Q[hArg]P[rhArg][Cha]SHKG[Oic][Nle]P[Phe(4-Cl)]-OH
modifications: also: reduced amide bond (CH2NH) at residue 8
B3: apelin polypeptide SEQ ID NO: 707 (peptide)
peptide: [Orn]F[hArg][hArg]Q[hArg]P[hArg][Cha]SHKG[Pip′][Nle]P[Phe(4-Cl)]
B4: apelin polypeptide SEQ ID NO: 710 (peptide)
peptide: [Orn]F[hArg][hArg]Q[hArg]P[hArg][Cha]SHKG[Oic][Nle][βAla][Phe(4-Cl)]
B5: apelin polypeptide SEQ ID NO: 712 (peptide)
peptide: [Orn]F[hArg][hArg]Q[hArg]P[hArg][Cha]SHKG[Oic][Nle][d1Nal]
B6: apelin polypeptide SEQ ID NO: 706 (peptide)
peptide: [Orn]F[hArg][hArg]Q[hArg]P[hArg][Cha]SHKG[β3hP][Nle]P[Phe(4-Cl)]
B7: apelin polypeptide SEQ ID NO: 38 (peptide)
peptide: Ac-[Orn]F[hArg][hArg]Q[rhArg]P[hArg][Cha]SHKG[Oic][Nle]P[Phe(4-Cl)]-OH
modifications: also: reduced amide bond (CH2NH) at residue 6
B8: apelin polypeptide SEQ ID NO: 34 (peptide)
peptide: Ac-[Orn]F[hArg][hArg]Q[hArg]P[hArg][αMeL]SHKG[Oic][Nle]P[Phe(4-Cl)]-OH
SMILES: CCCC[C@H](NC(=O)[C@@H]1C[C@@H]2CCCC[C@@H]2N1C(=O)CNC(=O)[C@H](CCCCN)NC(=O)[C@H](Cc1c[nH]cn1)NC(=O)[C@H](CO)NC(=O)[C@](C)(CC(C)C)NC(=O)[C@H](CCCCNC(=N)N)NC(=O)[C@@H]1CCCN1C(=O)[C@H](CCCCNC(=N)N)NC(=O)[C@H](CCC(N)=O)NC(=O)[C@H](CCCCNC(=N)N)NC(=O)[C@H](CCCCNC(=N)N)NC(=O)[C@H](Cc1ccccc1)NC(=O)[C@H](CCCN)NC(C)=O)C(=O)N1CCC[C@H]1C(=O)N[C@@H](Cc1ccc(Cl)cc1)C(=O)O
B9: apelin polypeptide SEQ ID NO: 33 (peptide)
peptide: Ac-[Orn]F[hArg][hArg]Q[hArg][αMeP][hArg][Cha]SHKG[Oic][Nle]P[Phe(4-Cl)]-OH
B10: apelin polypeptide SEQ ID NO: 702 (peptide)
peptide: [Orn]F[hArg][hArg]Q[hArg]P[hArg][Cha]SH[BLys]G[Oic][Nle]P[Phe(4-Cl)]
B11: apelin polypeptide SEQ ID NO: 30 (peptide)
peptide: Ac-[Orn]F[hArg][hArg]Q[hArg]P[hArg][BLeu]SHKG[Oic][Nle]P[Phe(4-Cl)]-OH
B12: apelin polypeptide SEQ ID NO: 705 (peptide)
peptide: [Orn]F[hArg][hArg]Q[hArg]P[hArg][Cha]SHKG[βAla][Nle]P[Phe(4-Cl)]
B13: apelin polypeptide SEQ ID NO: 31 (peptide)
peptide: Ac-[Orn]F[hArg][hArg]Q[hArg]P[hArg][Cha][Gly(N-CH2CH2OH)]HKG[Oic][Nle]P[Phe(4-Cl)]-OH
SMILES: CCCC[C@H](NC(=O)[C@@H]1C[C@@H]2CCCC[C@@H]2N1C(=O)CNC(=O)[C@H](CCCCN)NC(=O)[C@H](Cc1c[nH]cn1)NC(=O)CN(CCO)C(=O)[C@H](CC1CCCCC1)NC(=O)[C@H](CCCCNC(=N)N)NC(=O)[C@@H]1CCCN1C(=O)[C@H](CCCCNC(=N)N)NC(=O)[C@H](CCC(N)=O)NC(=O)[C@H](CCCCNC(=N)N)NC(=O)[C@H](CCCCNC(=N)N)NC(=O)[C@H](Cc1ccccc1)NC(=O)[C@H](CCCN)NC(C)=O)C(=O)N1CCC[C@H]1C(=O)N[C@@H](Cc1ccc(Cl)cc1)C(=O)O
B14: apelin polypeptide SEQ ID NO: 709 (peptide)
peptide: [Orn]F[hArg][hArg]Q[hArg]P[hArg][Cha]SHKG[Oic][Nle][β3hP][Phe(4-Cl)]
B15: apelin polypeptide SEQ ID NO: 711 (peptide)
peptide: [Orn]F[hArg][hArg]Q[hArg]P[hArg][Cha]SHKG[Oic][Nle][Pip′][Phe(4-Cl)]
B16: apelin polypeptide SEQ ID NO: 32 (peptide)
peptide: Ac-[Orn]F[hArg][hArg]Q[hArg]P[hArg][Cha]SH[Nlys]G[Oic][Nle]P[Phe(4-Cl)]-OH
B17: apelin polypeptide SEQ ID NO: 40 (peptide)
peptide: Ac-[Orn]F[hArg][hArg]Q[hArg]P[hArg][Cha]S[rHis]KG[Oic][Nle]P[Phe(4-Cl)]-OH
modifications: also: reduced amide bond (CH2NH) at residue 11
B18: apelin polypeptide SEQ ID NO: 25 (peptide)
peptide: Ac-[hArg]Q[dR]P[NMeR][Cha]SHKG[Oic][Nle][d1Nal]-OH
SMILES: CCCC[C@H](NC(=O)[C@@H]1C[C@@H]2CCCC[C@@H]2N1C(=O)CNC(=O)[C@H](CCCCN)NC(=O)[C@H](Cc1c[nH]cn1)NC(=O)[C@H](CO)NC(=O)[C@H](CC1CCCCC1)NC(=O)[C@H](CCCNC(=N)N)N(C)C(=O)[C@@H]1CCCN1C(=O)[C@@H](CCCNC(=N)N)NC(=O)[C@H](CCC(N)=O)NC(=O)[C@H](CCCCNC(=N)N)NC(C)=O)C(=O)N[C@H](Cc1cccc2ccccc12)C(=O)O
B19: apelin polypeptide SEQ ID NO: 29 (peptide)
peptide: Ac-[Orn]F[hArg][hArg][BLeu][hArg]P[hArg][Cha]SHKG[Oic][Nle]P[Phe(4-Cl)]-OH
B20: apelin polypeptide SEQ ID NO: 37 (peptide)
peptide: Ac-[Orn]F[hArg][hArg]Q[hArg]P[hArg][Cha]SHKG[Oic][Nle][αMeP][Phe(4-Cl)]-OH
B21: apelin polypeptide SEQ ID NO: 713 (peptide)
peptide: [Orn]F[hArg][hArg]Q[hArg]P[hArg][Cha]SHKG[Oic][Nle][d2Nal]
B22: apelin polypeptide SEQ ID NO: 36 (peptide)
peptide: Ac-[Orn]F[hArg][hArg]Q[hArg]P[hArg][Cha]SH[αMeOrn]G[Oic][Nle]P[Phe(4-Cl)]-OH
B23: apelin polypeptide SEQ ID NO: 704 (peptide)
peptide: [Orn]F[hArg][hArg]Q[hArg]P[hArg][Cha]SHK[βAla][Oic][Nle]P[Phe(4-Cl)]
B24: apelin polypeptide SEQ ID NO: 714 (peptide)
peptide: [Orn]F[hArg][hArg]Q[hArg]P[hArg][Cha]SHKG[Oic][Nle]P[Phe(4-Cl)]
B25: apelin polypeptide SEQ ID NO: 35 (peptide)
peptide: Ac-[Orn]F[hArg][hArg]Q[hArg]P[hArg][Cha][αMeS]HKG[Oic][Nle]P[Phe(4-Cl)]-OH

For one assay, the target named is T1, rat APJ receptor. The experiment in a line: cell-based or functional assay.
On to B1, for which the “EC50 Rat APJ Receptor” value is 2.67 nM.
For B2, the “EC50 Rat APJ Receptor” value stood at 0.323 nM.
For the molecule B3, the “EC50 Rat APJ Receptor” value was found to be 0.471 nM.
B4: the “EC50 Rat APJ Receptor” value is 1.79 nM.
Take B5: the “EC50 Rat APJ Receptor” value was determined as 0.821 nM.
Regarding B6, the “EC50 Rat APJ Receptor” value is 4.39 nM.
For the molecule B7, the “EC50 Rat APJ Receptor” value is 1.3 nM.
Still for that read-out and setting: the value for B8 was 0.193 nM; that for B9 was 0.318 nM.
As for B10, the “EC50 Rat APJ Receptor” value worked out at 1.49 nM.
Turning to B11, the “EC50 Rat APJ Receptor” value was 0.456 nM.
With B12, the “EC50 Rat APJ Receptor” value amounted to 11.1 nM.
In the case of B13, the “EC50 Rat APJ Receptor” value stood at 0.703 nM.
On to B14, for which the “EC50 Rat APJ Receptor” value was 0.862 nM.
In the case of B15, the “EC50 Rat APJ Receptor” value turned out to be 0.351 nM.
Take B16: the “EC50 Rat APJ Receptor” value stood at 1.51 nM.
In the case of B17, the “EC50 Rat APJ Receptor” value was 1.45 nM.
Consider B18, for which the “EC50 Rat APJ Receptor” value came out at 53.7 nM.
Turning to B19, the “EC50 Rat APJ Receptor” value turned out to be 0.301 nM.
The same measure, in the same setting: with B20 the figure was 0.136 nM; with B21, 1.14 nM; with B22, 1.94 nM.
Regarding B23, the “EC50 Rat APJ Receptor” value amounted to 2.86 nM.
In the case of B24, the “EC50 Rat APJ Receptor” value is 0.271 nM.
With B25, the “EC50 Rat APJ Receptor” value amounted to 0.185 nM.

In another assay the target is T2, human APJ receptor. Briefly: cell-based or functional assay.
Regarding B1, the “EC50 Human APJ Receptor” value came out at 1.26 nM.
For the molecule B2, the “EC50 Human APJ Receptor” value came to 0.253 nM.
With B3, the “EC50 Human APJ Receptor” value stood at 0.294 nM.
Still for that read-out and setting: with B4 the figure was 0.785 nM; with B5, 0.654 nM; with B6, 1.99 nM.
For the molecule B7, the “EC50 Human APJ Receptor” value came out at 0.0869 nM.
On the same count and under the same terms, with B8 the figure was 0.0519 nM; with B9, 0.0985 nM; with B10, 0.33 nM.
For the molecule B11, the “EC50 Human APJ Receptor” value was 0.166 nM.
As to B12, the “EC50 Human APJ Receptor” value amounted to 3.48 nM.
Turning to B13, the “EC50 Human APJ Receptor” value is 0.116 nM.
As to B14, the “EC50 Human APJ Receptor” value was 0.555 nM.
For B15, the “EC50 Human APJ Receptor” value was 0.229 nM.
B16: the “EC50 Human APJ Receptor” value was 0.25 nM.
With B17, the “EC50 Human APJ Receptor” value stood at 0.234 nM.
As for B18, the “EC50 Human APJ Receptor” value was 1.74 nM.
B19: the “EC50 Human APJ Receptor” value is 0.116 nM.
For B20, the “EC50 Human APJ Receptor” value is 0.0672 nM.
The same measure, in the same setting: the value for B21 was 1.54 nM; that for B22 was 0.355 nM.
The same measure, in the same setting: the value for B23 was 0.963 nM.
The same measure, in the same setting: the value for B24 was 0.168 nM; that for B25 was 0.0861 nM.
